In patent EP4089108A1 (Cytoki Pharma ApS, dated 2022):
Blank lines part the entries; values can stand above or below the binder they belong to.

Target: T1, human IL-22 receptor (human IL-22Ra and human IL-10Rb) expressed on BHK reporter cells (human, UniProt Q8N6P7 16-574; Q08334 20-325)
T1 sequence (looked up) 1: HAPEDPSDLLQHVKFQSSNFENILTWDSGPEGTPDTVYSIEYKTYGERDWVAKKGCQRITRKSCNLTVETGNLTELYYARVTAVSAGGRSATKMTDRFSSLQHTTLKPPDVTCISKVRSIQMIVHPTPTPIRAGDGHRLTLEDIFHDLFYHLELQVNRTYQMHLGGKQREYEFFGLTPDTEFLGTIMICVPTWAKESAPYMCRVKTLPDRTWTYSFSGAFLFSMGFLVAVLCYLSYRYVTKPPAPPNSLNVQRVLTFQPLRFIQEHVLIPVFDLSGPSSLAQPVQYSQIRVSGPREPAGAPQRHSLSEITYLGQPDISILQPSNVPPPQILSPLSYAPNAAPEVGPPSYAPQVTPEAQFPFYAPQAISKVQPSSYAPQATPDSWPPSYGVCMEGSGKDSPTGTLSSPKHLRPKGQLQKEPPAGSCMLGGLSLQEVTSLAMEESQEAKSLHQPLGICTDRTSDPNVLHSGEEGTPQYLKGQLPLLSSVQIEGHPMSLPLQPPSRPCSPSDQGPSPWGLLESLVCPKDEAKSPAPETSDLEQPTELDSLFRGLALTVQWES
T1 sequence (looked up) 2: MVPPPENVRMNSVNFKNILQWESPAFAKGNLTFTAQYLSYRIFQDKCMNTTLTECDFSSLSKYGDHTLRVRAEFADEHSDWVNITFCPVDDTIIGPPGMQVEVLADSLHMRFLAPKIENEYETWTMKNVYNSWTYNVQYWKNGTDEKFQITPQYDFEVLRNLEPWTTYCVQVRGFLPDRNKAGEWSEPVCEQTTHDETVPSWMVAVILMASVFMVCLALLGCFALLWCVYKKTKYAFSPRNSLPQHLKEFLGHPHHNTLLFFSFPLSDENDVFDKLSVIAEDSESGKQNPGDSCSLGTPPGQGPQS
Test: cell-based or functional assay

- EC50, BHK cell reporter gene assay (luciferase with STAT3-induced promoter): 0.07 nM
B1: native mature human IL-22 (ligand)
chain: APISSHCRLDKSNFQQPYITNRTFMLAKEASLADNNTDVRLIGEKLFHGVSMSERCYLMKQVLNFTLEEVLFPQSDRFQPYMQEVVPFLARLSNRLSTCHIEGDDLHIQRNVQKLKDTVKKLGESGEIKAIGELDLLFMSLRNACI

- EC50, BHK cell reporter gene assay (luciferase with STAT3-induced promoter): 0.06 nM
B2: Derivative 1 (ligand)
chain: GPGCPISSHCRLDKSNFQQPYITNRTFMLAKEASLADNNTDVRLIGEKLFHGVSMSERCYLMKQVLNFTLEEVLFPQSDRFQPYMQEVVPFLARLSNRLSTCHIEGDDLHIQRNVQKLKDTVKKLGESGEIKAIGELDLLFMSLRNACI
modifications: C16 monoacid covalently attached through linker γGlu-OEG-OEG-εLys-αAc to Cys at position 1 of hIL-22 numbering (attachment site 1C; position 4 of SEQ ID NO. 20)
